Laboratory results reported in patent publication US20100310509A1.

Target: OSMR:gp130 receptor complex on A375 melanoma cells (UniProt Q99650)
Assay: cell-based or functional assay

Sequence of OSMR:gp130 receptor complex on A375 melanoma cells (Q99650 28-979 limits assumed, chain 1 of 2): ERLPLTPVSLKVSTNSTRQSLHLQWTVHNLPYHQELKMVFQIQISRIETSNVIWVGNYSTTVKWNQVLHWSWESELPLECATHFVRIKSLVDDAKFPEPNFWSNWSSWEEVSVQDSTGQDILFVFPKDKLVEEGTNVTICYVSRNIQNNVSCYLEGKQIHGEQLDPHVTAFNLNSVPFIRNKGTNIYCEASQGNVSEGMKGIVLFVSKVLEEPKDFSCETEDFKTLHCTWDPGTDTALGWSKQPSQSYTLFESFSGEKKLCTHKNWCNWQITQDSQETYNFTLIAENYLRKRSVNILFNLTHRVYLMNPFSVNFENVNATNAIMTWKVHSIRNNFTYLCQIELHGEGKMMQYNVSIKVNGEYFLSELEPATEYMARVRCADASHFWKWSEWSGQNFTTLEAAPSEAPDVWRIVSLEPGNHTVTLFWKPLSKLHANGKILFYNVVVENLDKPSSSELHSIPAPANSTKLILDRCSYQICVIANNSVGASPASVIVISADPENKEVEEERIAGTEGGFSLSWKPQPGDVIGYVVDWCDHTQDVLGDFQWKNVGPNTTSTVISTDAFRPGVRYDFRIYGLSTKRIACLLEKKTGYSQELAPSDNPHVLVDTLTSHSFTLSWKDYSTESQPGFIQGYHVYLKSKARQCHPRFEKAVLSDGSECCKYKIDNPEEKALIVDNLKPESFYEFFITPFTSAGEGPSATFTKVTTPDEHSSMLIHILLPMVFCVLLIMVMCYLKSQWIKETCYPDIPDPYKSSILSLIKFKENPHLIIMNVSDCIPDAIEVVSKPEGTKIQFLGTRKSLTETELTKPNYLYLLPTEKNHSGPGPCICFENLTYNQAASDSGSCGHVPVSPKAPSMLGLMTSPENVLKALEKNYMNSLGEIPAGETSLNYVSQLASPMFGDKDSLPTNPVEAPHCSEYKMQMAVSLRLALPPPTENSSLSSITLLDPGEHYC
Sequence of OSMR:gp130 receptor complex on A375 melanoma cells (P40189 23-918 limits assumed, chain 2 of 2, further chain): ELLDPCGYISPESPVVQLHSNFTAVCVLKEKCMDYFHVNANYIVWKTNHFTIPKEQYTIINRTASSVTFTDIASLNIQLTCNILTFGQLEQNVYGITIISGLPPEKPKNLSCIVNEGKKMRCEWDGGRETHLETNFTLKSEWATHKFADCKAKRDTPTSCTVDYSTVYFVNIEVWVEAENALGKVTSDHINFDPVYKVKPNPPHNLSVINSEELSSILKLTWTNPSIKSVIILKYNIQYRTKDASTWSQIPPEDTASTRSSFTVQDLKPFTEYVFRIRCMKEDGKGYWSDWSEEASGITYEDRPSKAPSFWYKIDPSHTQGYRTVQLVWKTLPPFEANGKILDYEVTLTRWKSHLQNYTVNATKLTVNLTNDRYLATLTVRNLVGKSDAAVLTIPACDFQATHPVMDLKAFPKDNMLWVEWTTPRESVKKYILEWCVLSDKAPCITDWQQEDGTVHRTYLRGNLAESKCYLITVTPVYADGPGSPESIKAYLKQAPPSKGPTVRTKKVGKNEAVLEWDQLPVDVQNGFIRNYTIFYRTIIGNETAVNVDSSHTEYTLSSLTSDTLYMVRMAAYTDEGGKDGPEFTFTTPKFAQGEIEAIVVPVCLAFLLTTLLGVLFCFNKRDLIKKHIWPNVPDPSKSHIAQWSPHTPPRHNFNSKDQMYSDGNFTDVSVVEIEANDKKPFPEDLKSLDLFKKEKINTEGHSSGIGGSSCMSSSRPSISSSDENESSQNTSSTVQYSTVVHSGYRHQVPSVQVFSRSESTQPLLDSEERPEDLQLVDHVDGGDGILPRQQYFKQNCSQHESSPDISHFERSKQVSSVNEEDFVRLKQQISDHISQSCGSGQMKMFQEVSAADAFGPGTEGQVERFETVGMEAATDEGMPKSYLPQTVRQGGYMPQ

**Q.** How did the concentration that suppresses A375 melanoma cell proliferation by ~50% turn out when “OSM-WT ('AGA' modified human Oncostatin M, referred to as wild-type OSM) (from UniProt P13725 26-217) (ligand)” was run?
**A.** 20 ng/mL

**Q.** And the concentration that suppresses A375 melanoma cell proliferation by ~90%?
**A.** 50 ng/mL
